Measured values from article PMC4077619, “Split luciferase complementation assay to detect regulated protein-protein interactions in rice protoplasts in a large-scale format” (Rice, 2014).

Target: T1, CRLuc-H2B (Arabidopsis HISTONE 2B fused to the C-terminal fragment of Renilla luciferase) (Arabidopsis, UniProt Q9FFC0 1-145)
T1 construct: Arabidopsis HISTONE 2B (H2B), locus AT5G22880; cDNA inserted in a pDuEx vector; source: rice protoplasts, transformed (PEG) with a pDuEx vector (35S promoter), in cells
T1 sequence (Q9FFC0 whole entry, the tested form may be a part): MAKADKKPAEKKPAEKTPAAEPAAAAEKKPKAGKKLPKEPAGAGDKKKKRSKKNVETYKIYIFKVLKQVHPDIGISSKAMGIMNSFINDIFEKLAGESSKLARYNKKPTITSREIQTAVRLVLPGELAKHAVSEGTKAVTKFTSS
Assay: split reporter (BiFC, NanoBiT); split Renilla luciferase complementation in living rice protoplasts, 96-well plate, W5 buffer, ViviRen substrate, RLU read 16 h after transformation; no hormone added (before the hormone or with W5 buffer only); H2A-H2B also tested with GA3 (Figure S1), RLU not increased
Details: partners not purified

B1: NRLuc-H2A (Arabidopsis HISTONE 2A fused to the N-terminal fragment of Renilla luciferase) (natural protein)
chain: not shown
notes: Arabidopsis HISTONE 2A (H2A), locus AT4G27230; cDNA inserted in a pDuEx vector; source: rice protoplasts, transformed (PEG) with a pDuEx vector (35S promoter), in cells
fold RLU over a non-interaction protein pair: 10 fold
fold RLU over mock transformed protoplasts: 21 fold
